Source: paper PMC11184549 (ACS Infectious Diseases, 2024)
No end group written: not given here. *: point of attachment. FITC = O=C1OC2(c3ccc(O)cc3Oc3cc(O)ccc32)c2ccc(NC(=S)*)cc21; Ahx = NCCCCCC(=O)O

Biological target: human IMPα1 lacking the IMPβ-binding domain (IMPαΔIBB) (human, UniProt P52292 70-529)
Assay: fluorescence polarisation

{FITC-Ahx}-LWGFLSRNKKPRICTREEF [FITC-labeled DENV1 NS5 NLS_(Central) peptide]
Kd: > 700 nM
